From PMC4949388 (Brain, 2015)

B1: highly purified BuChE from human serum (enzyme)
chain: EDDIIIATKNGKVRGMNLTVFGGTVTAFLGIPYAQPPLGRLRFKKPQSLTKWSDIWNATKYANSCCQNIDQSFPGFHGSEMWNPNTDLSEDCLYLNVWIPAPKPKNATVLIWIYGGGFQTGTSSLHVYDGKFLARVERVIVVSMNYRVGALGFLALPGNPEAPGNMGLFDQQLALQWVQKNIAAFGGNPKSVTLFGESAGAASVSLHLLSPGSHSLFTRAILQSGSFNAPWAVTSLYEARNRTLNLAKLTGCSRENETEIIKCLRNKDPQEILLNEAFVVPYGTPLSVNFGPTVDGDFLTDMPDILLELGQFKKTQILVGVNKDEGTAFLVYGAPGFSKDNNSIITRKEFQEGLKIFFPGVSEFGKESILFHYTDWVDDQRPENYREALGDVVGDYNFICPALEFTKKFSEWGNNAFFYYFEHRSSKLPWPEWMGVMHGYEIEFVFGLPLERRDNYTKAEEILSRSIVKRWANFAKYGNPNETQNNSTSWPVFKSTEQKYLTLNTESTRIMTKLRAQQCRFWTSFFPKVLEMTGNIDEAEWEWKAGFHRWNNYMMDWKNQFNDYTSKKESCVGL

Tests used:
[1] = target: CSF BuChE (human (endogenous in CSF)) (UniProt P06276); assay: co-sedimentation
[2] = target: the molecule itself; assay: co-sedimentation

Molecule	stoichiometry N [1]	stoichiometry N [2]
CSF BuChE (from UniProt P06276 29-602) (enzyme)	4	–
B1	–	4
